The record followed here is patent US20100167342.

In the data set the test system is GlyExendin-4 (Glycine-extended Exendin-4, Exendin-4 precursor with C-terminal glycine).

In the case of “Pichia pastoris homolog of Saccharomyces cerevisiae STE13 dipeptidyl peptidase”, the “N-terminal clipping of GlyExendin-4 (HPLC and LCMS of peptide expressed in STE13-disrupted clone D2)” value is “the expressed GlyExendin-4 when checked by HPLC and LCMS was not N-terminally clipped”.

With “Pichia pastoris homolog of Saccharomyces cerevisiae dipeptidyl peptidase DAP2”, the “(N-2) impurity of GlyExendin-4 (HPLC of peptide expressed in DAP2-disrupted Pichia clone)” value was “This continued to show (N-2) impurity”.
